The record followed here is the DeepSol protein solubility set.

The nature of the data set: soluble on expression in E. coli; label from the status in PepcDB or PDB records.
Consider “MSLEKVDFIKEDLIFSLLEKGKITDRNEIREILAKARECKGISLGEVAKLLYLEDEELLEELYDVAKYIKNKIYGKRVVLFAPLYTSNECTNNCLYCGFRHDNKELHRKTLSLEEIVEEAKAIERQGHKRLLLICGEDPRKTNVKHFTDAMEAIYKSTDIRRINVEAAPMTVEDYRELKKAGIGTYVIFQETYHRETYRIMHPVGKKANYDWRITAIDRAFEGGIDDVGVGALFGLYDYRFEVLGLLMHCMHFEEKYGVGPHTISVPRLRPALGAPLKEIPYKVTDKDFKKIVAIFRIAVPYTGIILSTRERAEFRDELLSVGVSQISAGSKTNPGGYQEDDDHADQFEISDNRSLPKVMETICQQGYIPSFCTACYRRCRTGEHFMEYAKAGDIHEFCQPNAILTFKENLMDYADEPLRKMGEEVILKALEEIEDEKMKTLTIAKLEEIEKGKRDIYFEGHHHHHH”, for which the “soluble on expression in E. coli” value is listed as “soluble”. For the sequence “MSLELMEEVDRTVHHMQDEAANFPDPADRASQEEEFSLELRARDRERKLIKKIDETLQLIEDEEYGWCDSCGVEIGIRRLEEGHHHHHH”, the “soluble on expression in E. coli” value is listed as “not soluble”.

“MSLELTRYEIIKILMEYVTDEIVVCNIGIPSKELFKINDREKNFYMLGSMGLSSSIGHGLALSVNEKVIAIDGDGSVLMNMGSLATIGKTTPKDFLLLIVDNCAYGSTGNQETHSTCTDLYQVSKACGIDSIGVFNEEQLRDAVKLALSESGTKVIVAKARPHNENVPNINLVPTEIKHRFMNAIKKEGHHHHHH”: the “soluble on expression in E. coli” value is given as “not soluble”. As for “MSLENKETTTTTTTTNNGSDKKKRSLKIDLHTHILPKNWPNLKEKYGYGGWVSLDHHCSCKAKMMIDGKFFREIDSNCWDPDVRIQELNRDDVDIQVLSTVPVMFGYWAKPQDALDLAQYLNDHIAQVVSENPKRFIGLGSLPMQCTESSIQELRRCILELGLPGIQIGSNVNGKNLDDPSLFPIFEECEKLGAAVFIHPWEMVGKDRMPQYWLPWLVGMPAETCLAICSMIFGGVFQRLPNLKVCFAHGGGSFPFTIGRIEHGFNARPDLCAVVNPINPREYIGKFWVDSLVHDEEALKFLVNLMGEKKVTLGTDYPFPLGELVPGQLIESIKEFSETTKENLLGGNALEFLGLDPNKYLEGHHHHHH”, the “soluble on expression in E. coli” value is recorded as “soluble”. For “MSLEQDKYLTVAAITKYIEKKFEVDPYMKQVFVRGEISNLKQPASGHLYFTVKDEFAMLRSVMFHKAVQKIGFVPEDGMNVLVTGRIGVFTKAGRYQFYAEHMEPDGVGALYIQLEQLKAQLEKEGLFAETHKKVLPSFPSKVAVVTSKTGAAVRDILTTIHRRMPSVEVIVYPTIVQGEKAAQKIVENIGKINQRNDIDVMIIGRGGGSLEELWAFNEEPVVRAVYDSDVPVISAVGHETDFALSDFSADVRAATPTAAAELAVPDYRDLEERLAERKYRLLAVTRQALERKERSLEQLKQHLILNGPKHQLEQQMERTDYFSERLNNAFSKQIFVKQTAFDRLNDRLHYYHPNKEIELQKEQMTLHLQALDKAMKQLLKDKQQSFFRQVDALEHLSPLSLLKRGFGVTYKENTLVKSVQELEVGDNIQVKMQGGHIDALITAKEEDISGNEGHHHHHH”, the “soluble on expression in E. coli” value is on record as “soluble”.

As for “MSLEQLVLAIDLGTSGCKCALVSMEVDIRSWAFHGVPLHVSGLSAEQEPEDWWNAFMLGAHELLGADPLRRRQVVAICCSTQSEGTVCVDRNGAAIGRALLWLDKRGADSIKQRMGGGWCNLGGYGPLKLWRSLRLTGGVASLSGMDSAGHMAYILDHDPARYEKTHKFLNVLDYMNMRLSGRYCATGDSMLTAWITDNRDPHRIRYDDGLIRALGIDAGKLPELVGSTEVIGTLKPELADVLGLPRSTPVVAGAVDTSAVAVGATVRDFAPHLYLGTSSWVGAHVPFKKSSVRHHIAAVPSAVKGRYLAMAMQSAAGANLSFLRDKVLYHPDELLSDEQQPDVYALLDRIAARVPPGSRGLIYTPWLCGERSPVGDPSLRAGLINLKLEHSREDIIRAFMEGVAHNTRWMLEPFSRFIGQSSEIIVATGGGAQSDVWCQIMADVCGRVIQQPHNPIQTNARGAAFIAAVALGKLQFNDLPTLQRPHRLYEPSRSTRNLYDNRFATFKEVRKRLAPLYRRLNPSQETTEGHHHHHH”, the “soluble on expression in E. coli” value is given as “not soluble”. As to “MSLEWTKLTGTLKPDKDVKRGMLAIQPLGKGQFQLDVVSLFPSDTWDNGKSVFRADIMQNLKEYAPDFIRFPGGCIVHGVNEATMYHWKKTIGPIENRPGQWSKWAPYYRTDGIGYHEFYELCEYLGADAMYVIPTGMICTGWVKQSSPWNFIQPDVDLDAYIQDALDAIEYAIGPETSKWGALRVKNGHPKPFPLKYIEIGNEDFGPVYWERYEKIYQALHRQYPDLIYIANSIIGKENDDKRIDIAKFVNPKNVKVFDEHHYQPVEWACKQHYRFDNYERGIADLFVGELGIDGKYPYNLLASGAVRMSLERNGDLNPLLAERPVMRHWDFSEHRQLHSMLINGVDCSIRTSFYYLSKMFRDHTFDVCLDAGIQGMKGLQNVFVTMGYDSESKEYILKLINLRKQEVVLQTAVKGFGKKIQAQKITLSLEPGKNNTPEMPDAVKPVQSTVTLDLNKDLQLEASSMIVYRFKEGHHHHHH”, the “soluble on expression in E. coli” value was “not soluble”. As to “MSLEYFDMRKMSVNLWRNAAGETREICTFPPAKRDFYWRASITSIAANGEFSLFPGMERIVTLLEGGEMFLESADRFNHTLKPLQPFSFAADLVVKAKLTAGQMSMDFNIMTRLDVCKAKVRIAERTFTTFGSRGGVVFVINGAWQLGDKLLTTDQGACWFDGRHTLRLLQPQGKLLFSEINWLAGHSEGHHHHHH”, the “soluble on expression in E. coli” value is on record as “not soluble”. In the case of “MSLFFIYDFAMIMQFNSRYSDLNAKLYHQQAPVPLKGAKAGHFNEAIADELQWTSQEKQSWVDICSGQKTFDAFKPLAMVYAGHQFGQWAGQLGDGRGLLIGQVLHRSGQTIDLHLKGAGLTPYSRMGDGRAVLRSVIREYLAGHALNSLRVASSNAIGFTTSEQGVQRETLEQGAMLLRTSDCHIRLGHFEWINQYAPELLAEFTQKCIEWHYPEALQAEHPILAFAEGVIKNTAKMIADWQLVGFAHGVMNTDNLNITGSTLDFGPYGFMERFRPNWINNHSDHQGRYAYQNQPSIAHWNLWIWLNNLIPLSKPEDKETFKKQLADCLEHFEPTFLTAYTEGLCKKLGLPDFHKDSFDCGMAFLKVLQSEQLDYTQSFLRLQNHDYKALRDDCLDTRQFDDFLNLYHQIREHQDITALDQTMCDVNPVYILRNHMAQQAIEQAERGDFSEVERLFTLLAKPFTRQPALEKEQDLAPLPSDVPEIMVSCSSEGHHHHHH”, the “soluble on expression in E. coli” value is listed as “not soluble”. Next, “MSLFLMDQYIKVDITVEENEQERIMAELLAIGFDSFAEHANMLEAYVEKSAFSEADLKEVLHEVNPAYTYTFAEMPNINWNEEWEKNFDPLVIANQCYVRASFHAERPEFQYEVVINPKMSFGTGHHAEGHHHHHH”: “soluble”; “MSLFPDKYDSYLYINQDKIREDLKRALKDALRICLFHITHKSPNIRTEKATRICYYRECGYTDEQIIDKILEEEYVGFVDNIESAIKSREARFRNPQNSAKIACFTENVQSKYMWDRYADGYKGFALEYDLRNCVFKYNKLGMNVNLFPVIYTDLRPDVTLDEGNIHTYEYFKQIGDKNWLNYLNSIISVNQLYWYKAYLYKDQKEYEHEHEWRMLYYNFENEEDYASIPDTGCLKAIYYGPDIAKKDKEKLHRIAVKKGLKEYDVNLDAESRKYDLKVTMFQEGHHHHHH”: “not soluble”; “MSLFQITKSKLRFPLSTFTKRYSSFQAAKSVIDKAAIDGELRVFIVSGEVSGDNIGSRLMSSLKKLSPLPIRFNGVGGSLMCKKGLNSLFPMEDLAVMGVWELLPHLYKFRVKLKETIDAAVKFKPHVVVTVDSKGFSFRLLKELRGKQHKTCFIKLVRENHEGHHHHHH”: “not soluble”. Next, “MSLFQITKVEARIANYSLHQDRVIITSLGIHDRSRYLIITLTDELENQGFGEAATVMIWSGEAAETGLWIVQNRITPLLTGSHYDHPSEILTILDRALQGNPFLKASIDIAAWDLWARRQEKPVSALIGDRKPVESVPTRFSIGAYSVEDTVRLAVESWEAGIRTLKIKTGVPGLDDVARLKAVRERLGKEPILTIDANGAYQTEDQAVAAIEELLPFNLALVEQPTPRDRIGMMARVKQRVDVPILADESIFTPGELAEALDCDAMDLLSLYPGKNGGFTNSLKMAQTAQNAGKYCVIGSNMETDLGQAAMVCLAASLTAFPVEEYASDLMTGMIYTASSTSPALELNNGRLLTPLGTGFGVEPLHDEGHHHHHH”: “soluble”; “MSLGATNRLACYSDPADHYSHRVRLVLAEKGVSVQLIDVDPAHLPRKLAEVNPYGSVPTLVDRDLALYESTVVMEYLEERYPHPPLMPVYPVARGNSRLLMHRIQRDWCALADTVLDPRSSEAARTEARKALRESLTGVSPLFSEFACFMSDEQSLVDCCLLPILWRLPVLGIELPRQAKPLLDYMERQFAREPFQASLSSVEREMRKLEGHHHHHH”: “soluble”.

In the case of “MSLGDRMKIVMVTHGGEGDAFWDRVRKGAEAAAAKDGVDLTYAGDADTADQADLVRDAIRDKADGIAVTLAKPQAMKAPVAEAKAAGIPVVGLNSGIDAWRSTGLLEYFGQDESVAGRAVGDKLDDLRAKHALCVIHERGNVALEARCAGVKKTFGGETEMLYVEGTDMKAVGAAVTARLRQDPSIDEVVMNGAAFALTAVEAVDEAGSDAHVATFDLDNDLVAAVKRGDVQFAVDQQPYLQGYLAVDALWLYRTNGNVSGGGVAPVLTGPAFVTREGHHHHHH”, the “soluble on expression in E. coli” value is reported as “soluble”. Regarding “MSLGKFTAVILDFETTGLSPGYGDRAIEIGAVLVRNNRIVDRFQSLMNPGKRVSGFIEEYTGITNEMLAKAPPAEQVMERFASFIAGHNLVAHNASFDRRFLDAELSRIGRRRTGDFACSMLAARRIYTNAPNHRLETLVSHLSLQTDGVFHRALADAEMTAQLWTAMIGELKETYRLRQVTFELMHSLGGVAKKAVPAYLERVAAGREGHHHHHH”, the “soluble on expression in E. coli” value is “not soluble”.

Take “MSLGLFSKKPPCPICGGKIPLILPSKIEDEYICNTCYNKIDMGADQENHLTMQGLREYLAFYEQNQRLKEQFVISERIDFGLWDTKIIFDHRNKLFCMSKNPDKTVFEGQQLKSFTIKEDSTPLFEGSAAGIRRYASTVTERTMAMAPQIAQSAANRRMARTLDRLDDGKVNNSAPVQYFDIPEPFQAFNVELHFDHPYWTVLQCDMDGPRFDNSHPDVNNYLRSYQQSIEEIEKLVAALRTVAFPGAAEQSVGLGPVGMQAAYTTMAPPTDAIEEIKKYKALMEDGIISQQEFEAKKKQLLGIEGHHHHHH”: the “soluble on expression in E. coli” value is “soluble”.

With “MSLGQIKGDLHMHSTWSDGAFSIREMAEACIKKGYQYMAITDHSQYLKVANGLTAERLKQQAKEIDALNAEFENFRILKGVEMDILPDGTLDYDDDVLAEMDIVIASIHSSFNQPEHVIMKRLETALTNKHVDIIAHPTGRLIGRRAGYEIDIDQLIELARKTNTALELNANPARLDLRTEHLMKANEQGVTLVINTDAHNIEMLDDMKTGVTAARKGWTETKNVLNARSLKDVEAFLKRNDEGHHHHHH”, the “soluble on expression in E. coli” value was “soluble”. “MSLGRGMQKQRFCLDTSAFTEPSVRKALGVKTVTELTDKVMDLIAEARIKLNISCHIPYPTVYNELMGFLENENCPRDVIVKVDTWLVKKTPNRYEIKIPSEIFYEYVKDLRERINKGMRIGEEHIIKATDMVYELSKKHPEMGKNEIINKVLSKTINTFRNKYRSALRVGTLDSAPDLDVLLLAKELDAAVVASDGGIEKWAQRLGLRFVDASDFPFMLEEYLKHNDRHLRIKYEGHHHHHH”: the “soluble on expression in E. coli” value is “soluble”.
